This is an account of results in publication PMC4260879.

A word on the EC50: it is the concentration that produces a half-maximal response. The low end stands for an effect from little substance, the high end for a need for much substance. A word on the stoichiometry N: it is the number of molecules, sites or subunits per partner or assembly.

The target in assay [1] is UG37 gp140 (HIV-1). Put plainly: ELISA; gp140 coated at 2 ug/ml (2 hr, 37 C); CD4-IgG2 titrated, 2 hr at RT; detected with anti-human-IgG-HRP; one-site binding fit, EC50 at 50% of maximum binding. In general terms: An ELISA detects its analyte on a solid surface through an enzyme-linked reagent.
Assay [2] deals with UG37 gp140 (HIV-1). Put plainly: SEC; Superdex200 26/60; trimer peak after Talon, re-run after GNA-lectin capture. On the technique in general: Size exclusion chromatography separates by hydrodynamic size, large species first.

In turn, “CD4-IgG2 (from UniProt P01730 26-458) (Fc fusion)” showed an EC50 in assay [1] of 0.18 nM.

UG37 gp140 (domain or fragment) came in with a stoichiometry N in assay [2] of 3.
